From patent publication US20250064890A1, “PROTEIN COMPOSITIONS FOR THE TREATMENT OF INFLAMMATORY DISEASES” (Unichem Laboratories Limited, priority 2021, published 2025)

Tests used:
TNF-α = TNF-α in jugular mucosa (ELISA), 5-FU induced OM in hamsters; format: in vivo, golden Syrian hamsters; conditions: for TNF-α levels, % Decrease vs G2: G2 = OM + Vehicle
Protocol: To induce OM, animals were administered (except normal control) 5-Fluorouracil (5-FU) by intraperitoneal route at doses of 60 mg/kg & 40 mg/kg respectively on first two days. On Day 4, under anesthesia, with aim of enhancing OM, mechanical irritation of the oral mucosa were done using wire brush. Treatment was initiated from Day 4 to Day 12. For group 3 animals 100 μl of vehicle comprising of standard drug Dexamethasone at 0.1 mg was instilled in buccal cheek pouch. For group 4, 5 and 6 animals 100 μl of vehicle comprising of SEQ ID NO. 2 at 0.25 mg, 0.5 mg & 1 mg, respectively was instilled in buccal cheek pouch. At the end of treatment period, cheek pouch of the hamsters was exposed, Mucositis scoring was carried out and images were captured. The animals were then humanely sacrificed, cheek pouch/jugular mucosa were isolated and used for biomarker estimation and histopathological investigation by using ELISA method and Hematoxylin and Eosin (H&E) staining, respectively.
Further, for biomarker estimation jugular mucosa was dissected out, tissue weighed and stored in ice cold 1×PBS. 100 mg of tissue was taken and in 1 ml of 1×PBS buffer. Supernatant of homogenate was used for analysis of TNF-α and Interleukin-1β using ELISA method as per manufacturers instruction. The levels of TNF-α and Interleukin-1β are given in Table 13, FIG. 2 and Table 14, FIG. 3, respectively.

[1] = tested on: oral (buccal) mucosa cells (TR146); assay: Sub(G0/G1) cell population (cell cycle) against radiation induced damage; format: cell-based, human; conditions: for % Decrease in Apoptotic cells (with respect to control): Sub G0/G1
Protocol: To determine the effect of test item on cell cycle, oral buccal mucosal cells (TR146) were incubated overnight in 5% CO2 incubator at 37° C. for 24 h. […] After 24 h of treatment, cells were exposed to chemotherapy (5-FU 10 mM) for 24 h or radiotherapy (Gamma radiation (3.5 kGy) using Cobalt 60) for 2 h.
After incubation, cells were harvested by trypsinization and processed for Cell cycle assay. Accordingly, cells were harvested into prelabeled centrifuge tubes and centrifuged at 450 g for 5 min at room temperature (RT, low brake). The supernatants were removed carefully and discarded. 1 ml of 1× phosphate buffer saline (PBS) was added to the pellet and resuspended gently to make homogenous suspension. Cells were centrifuged at 450 g for 5 min, RT (low brake). The supernatant was carefully removed leaving behind approx. 100 μl of PBS. Cells were resuspended gently yet thoroughly in residual PBS. Ice-cold 70% ethanol (100 μl) was added drop-wise into cells in each tube while vortexing at low speed (fixation step). Cells stored at 4° C. for 24 h were centrifuged at 450 g for 5 min, RT (low brake). The supernatant was carefully removed without touching the pellet and discarded. 1 ml of 1×PBS was added into pellet and resuspended gently. Cells were incubated for 1 minute at RT. Cells were centrifuged at 450 g for 5 min, RT (low brake). The supernatant was removed carefully without touching the pellet, leaving behind approx. 20-50 μl of PBS. 200 μl of cell cycle reagent was added into each tube. Cells were resuspended gently and mixed. Cells were incubated for 30 min at RT in the dark. The stained samples were transferred into 96-well plates and acquired on flow cytometer (Guava technologies). Percentage of cells in Sub (G0/G1) phase were determined based on the concept that cell cycle reagent contains PI stain, which stains DNA of cells in different phases of cell cycle; Sub (G0/G1), G1, S, G2 and M. Cells in Sub (G0/G1) phase correspond to apoptotic cells. Percent inhibition in apoptotic cells is determined by the formula:
=[(% Sub(G0/G1) cells in 5-FU/radiation alone)−(% Sub(G0/G1) cells in TI+5-FU/radiation)/% Sub(G0/G1) cells in 5-FU/radiation alone]*100

[2] = tested on: oral (buccal) mucosa cells (TR146); assay: Annexin positive cell population against radiation damage; format: cell-based, human; conditions: for % Apoptotic cells: Annexin positive
Protocol: Oral buccal mucosal cells (TR146) were incubated overnight in 5% CO2 incubator at 37° C. for 24 h. […] After 24 h of treatment, cells were exposed to damage (5-FU 5 mM) for 1.25 h for chemotherapy induced inflammation and exposed to gamma radiation (3.5 kGy) using Cobalt 60 for radiation induced inflammation. After the exposure, the anti-apoptotic effect of SEQ ID NO 2 was determined by restoration of mitochondrial membrane depolarization by JC-1 staining and reduction in apoptotic cell populations (Annexin positive and subG0/G1 cells in cell cycle analysis).
To determine the reduction in apoptotic cell populations using annexin-v staining cells were gently harvested into pre-labeled sterile centrifuge tubes and centrifuged at 300×g for 5-7 min. Supernatant were discarded and the pellet was resuspended in 200 μl of fresh culture medium. 100 μl of cell suspension was transferred into pre-labeled sterile centrifuge tubes. 100 μl of Annexin-V reagent was added to each tube and incubated for 30 min at RT in dark. Cells stained for Annexin-V were then transferred into 96-well plates and acquired on flow cytometer (Guava technologies). Percentage of Annexin-V positive cells was calculated as follows:
={[% Annexin positive cells in 5-FU or radiation alone]−[% Annexin positive cells in (TI+5-FU) or (TI+radiation)]/% Annexin positive cells in 5-FU or radiation alone}*100

[3] = tested on: oral (buccal) mucosa cells (TR146); assay: Cytoprotective effect against 5-FU induced damage (MTT); format: cell-based, human
Protocol: The cell viability was assessed by (MTT) assay and compared with positive control (Cells treated with Amifostine, EGCG and EGF and negative assay (untreated cells), wherein the control was the cells that underwent chemotherapy/radiotherapy.
The protective effect of the recombinant lectin on survival of TR146 cells against 5-FU induced damage was determined using following calculations:
The viability of cells was determined as: % Cell viability=(100−% Cytotoxicity); • where, the percentage cytotoxicity corresponding to each treatment was calculated as: % Cytotoxicity=[(R−X)/R]*100, wherein X=Absorbance of cells treated with 5-FU or radiation damage/TI+5-FU, R=Absorbance of Control cells (Untreated) and Percentage protection was calculated as:
{(Absorbance of TI+5-FU or radiation)−(Absorbance of 5-FU or radiation alone)/(Absorbance of Untreated)−(Absorbance of 5-FU alone)}*100

[4] = 0.01 μg/ml + Radiation (3.5 kGy)
[5] = 0.1 μg/ml + Radiation (3.5 kGy)

B1: SEQ ID NO 2: recombinant lectin, variant of the S. rolfsii lectin amino acid sequence (reported as Rec-2 in WO 2010/095143) (protein)
chain: TYKITVRVYQTNPDAFFHPVEKTVWKYANGGTWTITDDQHVLTMGGSGTSGTLRFHADNGESFTATFGVHNYKRWCDIVTNLAADETGMVINQQYYSQKNREEARERQLSNYQVKNAKGRNFQIVYTEAEGNDLHANLIIG
TNF-α; G4, 0.25 mg/Animal
  TNF-α levels, Mean: 153.48 pg/mL
  TNF-α levels, % Decrease vs G2: −23.77%
TNF-α; G5, 0.5 mg/Animal
  TNF-α levels, Mean: 155.76 pg/mL
  TNF-α levels, % Decrease vs G2: −25.61%
TNF-α; G6, 1 mg/Animal
  TNF-α levels, Mean: 79.37 pg/mL
  TNF-α levels, % Decrease vs G2: 36.00%
TNF-α; hamsters suffering from OM, in words
  levels of TNF-α as compared to the untreated subjects: reduction
[1]; [4]
  % Apoptotic cells (Sub G0/G1): 15.2%
  % Decrease in Apoptotic cells (with respect to control): 56.9%
[1]; [5]
  % Apoptotic cells (Sub G0/G1): 14.3%
  % Decrease in Apoptotic cells (with respect to control): 59.5%
[1]; 1 μg/ml + Radiation (3.5 kGy)
  % Apoptotic cells (Sub G0/G1): 22.3%
  % Decrease in Apoptotic cells (with respect to control): 36.9%
[1]; 10 μg/ml + Radiation (3.5 kGy)
  % Apoptotic cells (Sub G0/G1): 35.7%
  % Decrease in Apoptotic cells (with respect to control): −1.3%
[2]; [4]
  % Decrease in Apoptotic cells (with respect to radiation control): −4.8%
  % Apoptotic cells: 14.3%
[2]; [5]
  % Decrease in Apoptotic cells (with respect to radiation control): −7.3%
  % Apoptotic cells: 14.7%
[2]; 1 μg/ml + Radiation (3.5 kGy)
  % Decrease in Apoptotic cells (with respect to radiation control): 56%
  % Apoptotic cells: 6%
[2]; 10 μg/ml + Radiation (3.5 kGy)
  % Decrease in Apoptotic cells (with respect to radiation control): 62.2%
  % Apoptotic cells: 5.1%
[2]; 10 μg/ml + Radiation (3.5 kGy), listed as SEQ ID NO: 2
  % Decrease in Apoptotic cells (with respect to radiation control): 62.6%
[3]
  cell viability against 5-FU induced cell damage: 56.8-78.4%
[3]; 1 μg/ml + 5-FU (5 mM)
  % Protection: 26%
[3]; 10 μg/ml + 5-FU (5 mM)
  % Protection: 50.6%
[3]; 25 μg/ml + 5-FU (5 mM)
  % Protection: 51%
[3]; 50 μg/ml + 5-FU (5 mM)
  % Protection: 63%
[3]; 100 μg/ml + 5-FU (5 mM)
  % Protection: 53%
